Measurements reported in paper PMC3991817.
Read-outs that look alike come from different tables or passages of the source.

Columns and labels:
Assay in all cases: EMSA
[1] = target: T1, Pax8b (Oncorhynchus mykiss (rainbow trout), UniProt W0S4A0 1-303)
[2] = target: T2, Pax8a (Oncorhynchus mykiss (rainbow trout), UniProt W0S3W1 1-458)
[3] = target: T3, Nkx2-1 (Rattus norvegicus (rat), UniProt P23441 1-372)
T3 sequence: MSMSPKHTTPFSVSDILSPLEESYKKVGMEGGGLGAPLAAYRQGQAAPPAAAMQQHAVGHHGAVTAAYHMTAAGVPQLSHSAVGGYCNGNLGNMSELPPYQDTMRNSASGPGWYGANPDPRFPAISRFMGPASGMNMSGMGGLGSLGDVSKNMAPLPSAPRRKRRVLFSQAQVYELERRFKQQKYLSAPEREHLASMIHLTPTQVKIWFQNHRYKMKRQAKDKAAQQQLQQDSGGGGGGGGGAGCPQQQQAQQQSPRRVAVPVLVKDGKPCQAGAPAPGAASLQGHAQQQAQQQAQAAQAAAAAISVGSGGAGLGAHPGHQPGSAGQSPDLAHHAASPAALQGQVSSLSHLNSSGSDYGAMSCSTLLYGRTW

[4] = target: T1, Pax8b; remark: listed apart in the source
[5] = target: T2, Pax8a; remark: listed apart in the source

B1: oligo B (dsDNA)
DNA 1: GAACCAGGGATTCTTCACACTTCATAGAGCAGCT
DNA 2: AGCTGCTCTATGAAGTGTGAAGAATCCCTGGTTC
binding result [1]: binds | binding result [2]: binds | binding result [3]: binds

B2: oligonucleotide CT (dsDNA)
DNA 1: CTGTCTAAGCTTGAGTGGGCATCA
DNA 2: TGATGCCCACTCAAGCTTAGACAG
binding result [4]: binds | binding result [5]: binds
